{"source": "the nanobody polyreactivity screen of Harvey et al. (2022)"}
{"experiment": "yeast display, Sf9 membrane polyspecificity reagent, FACS + sequencing; frameworks hold sequencing errors", "method_in_brief": "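In a synthetic yeast display library (Saccharomyces cerevisiae BJ5465), nanobody expression was induced with galactose for 36–48 hours. FACS gates were set low and high (top ~1%) using anti-HA fluorescence for expression and streptavidin fluorescence for binding of the Sf9 membrane reagent. Each polyreactivity label is drawn from the gate of origin.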"}
{"sequence": "QVQLVESGGGLVQAGGSLRLSCAASGFTFYDNAMGWYRQAPGKERELVAAISSSGTRTYYADSVKGRFTISRDNAKNTVYLQMNSLKPEDTAVYYCAARGQAYSGDRMYYWGQGTQVTVSS", "polyreactivity (PSR sort gate)": "high polyreactivity"}
{"sequence": "QVQLVESGGGLVQAGGSLRLSCAASGSIFDDYAMGWYRQAPGKEREFVATITTSGGNTYYADSVKGRFTISRDNAKNTVYLQMHSLKPEDTAVYYCAKDRVKSPYLVYDSWGQGTQVTVSS", "polyreactivity (PSR sort gate)": "low polyreactivity"}
{"sequence": "QVQLVESGGGLVQAGGSLRLSCAASGRTFLLYAMGWYRQAPGKERELVAAISSGGSTYYADSVKGRFTISRDNAKNTVYLQMNSLKPEDTAVYYCNAVYQHLASEYDYWGQGTQVTVSS", "polyreactivity (PSR sort gate)": "low polyreactivity"}
{"sequence": "QVQLVESGGGLVQAGGSLRLSCAASVRIFLWYAMGWYRQAPGKERELVAAITKSAGTTYYADSVKGRFTISRDNAKNTVYLQMNSLKPEDTAVYYCGAYYWLYAHWRFGNYWGQGTQVTVSS", "polyreactivity (PSR sort gate)": "low polyreactivity"}
{"sequence": "QFQLVESGGGLVQAGGSLRLSCAASGRIFKPNAMGWYRQAPGKERELVAAIRYSTGRTYYADSVKGRFTISRDNAKNTVYLQMNSLKPEDTAVYYCAARRVEYYGSQNGYWGQGTQVTVSS", "polyreactivity (PSR sort gate)": "high polyreactivity"}
{"sequence": "QVQLVESGGRLVQAGGSLRLSCAASGGIFTAYTMGWYRQAPGKESELVAVISSGGGRTYYADSVKGRFTISRDNAKNTVYLQMNSLKPEDTAVYYCNARVYVSANKYDYWGQGTQVTVSS", "polyreactivity (PSR sort gate)": "high polyreactivity"}
{"sequence": "QVQLVESGGGLVQAGCSLRLSCAASGFIFDDYDMGWYRQAPGKERELVAAISWSGGSTYYADSVKGRFTISRDNAKNTVYLQMNSLKPEDTAVFYCNADYYRSRYDYWGQGTQVTVSS", "polyreactivity (PSR sort gate)": "high polyreactivity"}
{"sequence": "QVQLVESGGGLVQAGGSLRLSCAASGFIYDYAMGWYRQAPGKQREFVARINWSGGSTYYADSVKGRFTISRDNAKNTVYLQMNSLKPEDTAVYYCATSGWAWRTSNPYEYWGQGTQVTVSS", "polyreactivity (PSR sort gate)": "low polyreactivity"}
{"sequence": "QVQLVESGGGLVQAGGSLRLSCAASGFILPTYAMGWYRQAPGKERELVAAITRSGGSTYYADSVKGRFTISRDNAKNTVYLQMNSLKPEDTAVYYCAAQRLSASRPYGYWGQGTQVTVSS", "polyreactivity (PSR sort gate)": "high polyreactivity"}
{"sequence": "QVQLVESGGGLVQAGGSLRLSCAASGRTFAVYAMGWYRQAPGKERELVAAISYSGDSTYYADSVKGRFTISRDNAKYTVYLQMNSLKPEDTAVYYCAADFLVGLTAVAYEYWGQGTQVTVSS", "polyreactivity (PSR sort gate)": "low polyreactivity"}
{"sequence": "QVQLVESGGGLVQAGGSLRLSCAASGSIFGNNAMGWYRQAPGKERELVAAITSSGGSTYYADSVKGRFTISRDNAKNTVYLQMNSLKPEDTAVYYCATEWSGYTYWFYEWEYGYWGQGTQVTVSS", "polyreactivity (PSR sort gate)": "high polyreactivity"}
{"sequence": "QVQLVESGGGLVQAGGSLRLSCAASGSIFYLYAMGWYRQAPGKERELVAGIRYRGGSTYYADSVKGRFTISRDNAKNTVYLQMNSLKPEDTAVYYCAAEYGDGRYWSYDYWGQGTQVTVSS", "polyreactivity (PSR sort gate)": "high polyreactivity"}
{"sequence": "QVQLVESCGGLVQAGGSLRLSCAASGFTFGSYDMGWYRQAPGKERELVAAITWSGGSTYYADSVKGRFTISRDNAKNTVYLQMNSLKPEDTAVYYCNAYKFHMNYWGQGTQVTVSS", "polyreactivity (PSR sort gate)": "high polyreactivity"}
{"sequence": "QVQLVESGGGLVQAGGSLRLSCDASGRTFYANDMGWYRQAPGKERELVAAISSSVTSTHYADSVKGRFTISRDNAKNTVYLQMNSLKPEDTAVYYCNKDPIREVQPPGPSEMDYWGQGTQVTVSS", "polyreactivity (PSR sort gate)": "low polyreactivity"}
{"sequence": "QVQLVESGGGLVQAGGSLRLSCAASGRTFRWYAMGWYRQAPGKEMELVAALTFRGGRTYYADSVKGRFTISRDNAKNTVYLQMNSLKPEDTAVYYCNAVTYSSPYRFDYWGQGTQVTVSS", "polyreactivity (PSR sort gate)": "low polyreactivity"}
{"sequence": "QVQLVESGGGLVQAGGSLRLSCAASGLTFKLYVMGWYRQAPRKERELVAAISGGGSTYYADSVKGRFTISRDNAKNTVYLQMYSLKPEDTAVYYCAAVRYFEYEYWGQGTQVTVSS", "polyreactivity (PSR sort gate)": "low polyreactivity"}
{"sequence": "QVQLVESGGGLVQAGGSLRLSCAASGRTFRYYAMGWYRQAPGKERELVAAITSSGGSTYYADSVKGRFTISRDNAKNTVYLQMNSLKPEDTAVYYCNRTPYHAPWQDALYRYGYWGQGTQVTVSS", "polyreactivity (PSR sort gate)": "high polyreactivity"}
{"sequence": "QVQLVESGGGLVQAGGRLSLSCAASGSTFSPYAMGWYRQAPGKEREFVADISWPGGTTYYADSVKGRFTISRDNAKNTVYLQMNSLKPEDTAVYYCAVTYWDYTFQITYEYWGQGTQVTVSS", "polyreactivity (PSR sort gate)": "low polyreactivity"}
{"sequence": "QVQLVVSGGGLVQAGGSLRLSCAASGRTFYANAMGWYRQAPGKERELVAAISTGGDGTYYADSVKGRFTISRDNAKNTVYLQMNSLKPEDTADYYCAVRHRASGILYDYWGQGTQVTVSS", "polyreactivity (PSR sort gate)": "low polyreactivity"}
{"sequence": "QVQLVESGGGLVQAGGSLRLSCAACGSTFRYYAMGWYRQAPGKERELVAAITYSGGSTYYADSVKGRFTISRDNAKNTVYLQMNSLKPEDTAVYYCNADFLPRWYPPPYDYWGQGTQVTVSS", "polyreactivity (PSR sort gate)": "high polyreactivity"}
{"sequence": "QVQLVDSGGGLVQAGGSLRLSCAASGFIFGYYAMGWYRPAPGKERELVAAISQSTGSTYYADSVKGRFTISRDNAKNTVYLQMNSLKPEDTAVYYCNAEGPEFTTWGYVYWDWGYGYWGQGTQVTVSS", "polyreactivity (PSR sort gate)": "low polyreactivity"}
{"sequence": "QVQLVESGGGLVQAGGSLRLSCAASGRIFYYNPMGWYRQAPAKERELVAAISWDGGSTYYADSVKGRFTISRDNAKNTFYLEMNCLKAEDTAVYYCAVDLYGTWYPTWFNYWGQGTQVTVSS", "polyreactivity (PSR sort gate)": "low polyreactivity"}
{"sequence": "QVQLVESGGGLVQAGGSLSLSCAASGRTFSSYVMGWYRPAPGNERELVAAITQSSSRTYYADSVKGRFTISRDNAKNTVYLQMNSLKRVYTAVYYCNAALYPYLQYYYWGLGTQVTVSS", "polyreactivity (PSR sort gate)": "low polyreactivity"}
{"sequence": "QVQLVESGGGLVQAGGSLRLSCAASGRTFQYYTMGWYRQAPGKEREFVAALRDSGGSTYYADSVKGRFTISRDNAKNTVYLQMNSLKPEDTAVYYCAAYRPRKYDYWGQGTQVTVSS", "polyreactivity (PSR sort gate)": "high polyreactivity"}
{"sequence": "QVHLVESGGGLVQAGGCLRLSCAASGSIFSVHAMGWYRQAPVKERELVAAISGDGDSTYYADSVKGRFTISRDNAKNTVYLQMNSLKPEDTAVYYCAVEPNVYFSVFVLFPSDYWGQGSQVTVSS", "polyreactivity (PSR sort gate)": "low polyreactivity"}
{"sequence": "QVQLVESGGGLVQAGGSLRLTCAASGSTSYSNAMGWYRQAPGKERELVAAINRRGDSTYYADSVKGRFTISRDNAKNTVYLQMNSLKPEDTAVYYCNKVVRVYLGRFQYYSWGQGTQVTVSS", "polyreactivity (PSR sort gate)": "high polyreactivity"}
{"sequence": "QVQLVESGGGLVQAGGSLRFSCAASGSICGGYAMGWYRQAPGKERELVASITKSGDSTYADSVKGRFTISRDNAKNTVYLQMNSLKPEDTAVYYSAADSTFGNFDYWGQGTQVTVSS", "polyreactivity (PSR sort gate)": "low polyreactivity"}
{"sequence": "QVQLVESGGGLVQAGGSIRLSCAASGSIFGSNAMGWYRQAPGKERELVDAISGSGGSTNYADSVKGRFTISRDNAKNTVYLQMNSLKAEDTAVYYCAVPSKATGSASTSSGIFDSWGQGTQVTVSS", "polyreactivity (PSR sort gate)": "low polyreactivity"}
{"sequence": "QVQLVESGGGLVQAGGSLRLSCAASGITFAWNAMGWYRPAPGKEREFVAAINWSGGSTYYADSVKGRFTISRDNAKNTVYLQMNSLKPEDTAVYYCAAYKRSYYPRTLYDYWGQGTQVTVSS", "polyreactivity (PSR sort gate)": "high polyreactivity"}
{"sequence": "QVQLVESGGGLVQEGGSLRLSCAASGRTFYRNAMGWYRQAPGKERELVAAISSDDSTNYADSVKGRFTISRDNAKNTVYLQMNSLKPEDTAVYYCNADYYYGYEYDYWGQGSQVTVSS", "polyreactivity (PSR sort gate)": "low polyreactivity"}
{"sequence": "QVQLVESGGGLVQAGGSLRLSCAASGNTFYHYAMGWYRQAPGKERELVAAITWTGDSTYYADSVKGRFTISRDNAKNTVYLQMNSLKPEDTAVYYCNRVGYQSMNYWGQGTQVTVSS", "polyreactivity (PSR sort gate)": "low polyreactivity"}
{"sequence": "QVQLVESGGGLVQAGGSLRLSCAASGITFYWYTMGWYRQAPGKERELVADIDGDGGSTYYADSVKGRFTISRDNAKNTVYLQMNSLKPEDTAVYYCAAQVWPWGYDYWGQGTQVTVSS", "polyreactivity (PSR sort gate)": "high polyreactivity"}
{"sequence": "QVQLVESGGGLVQAGGSLRLSCSASGSIFKYYTMGWYRQAPGKERELVASINGGGSTNYADSVKGRFTISRDNAKNTVYLQMNSLKPEDTAVYYCNARYWWQDGYWGQGTQLTVSS", "polyreactivity (PSR sort gate)": "high polyreactivity"}
{"sequence": "QVQLVESGGGLVQAGGSLRLSCAASGFIVRYNAMGWYRQAPGKERELVAVITDSSDSTYYADSVKGRFTISRDNAKNTVYLQMNSLKPVDTAVYYCDTDYGYAGDYWGQGSQVTVSS", "polyreactivity (PSR sort gate)": "low polyreactivity"}
{"sequence": "QVQLVESGGGLVQAGGSLRLSCAASGITFPYYAKGWYRQAPGKERELVAGISRSGGRTYYADSVKGRFTISRDNAKNTVYLQMNSLKPEDTAVYYCNARKNLLSVTFDYWGQGTQVTVSS", "polyreactivity (PSR sort gate)": "high polyreactivity"}
{"sequence": "QVQLVESGGGLGQAGGSLRLSCAASGNTFYWNAMGWYRQAPGKERELVAAISTTGVSSYYADSVKGRFTISRDNAKNSVYLQMNSLKPEDTAVYYCAGEIIGYHTIYDYWGQGTQVTVSS", "polyreactivity (PSR sort gate)": "low polyreactivity"}
{"sequence": "QVQLVESGGGLVQAGGSLRLSCAASGITFVRYAMGWYRQAPGKERELVAAISSGGSTHYADSVKGRFTISRDNAKNTVYLQMNSLKPEDTAVYYCAAQWTESSLYRFGYWGQGTQVTVSS", "polyreactivity (PSR sort gate)": "high polyreactivity"}
{"sequence": "QVQLQESGGGLVQAGGCLSCTSSGTIFGQGDMGWYRQAPGKERELVATINDGASTYYADSVKGRFTISRDTAKNSVYLQKNSLKPDDTAVYYCAVFTDITTYFGYWGQGTQVTVSS", "polyreactivity (PSR sort gate)": "low polyreactivity"}
{"sequence": "QVQLQESGGGLVQACGSLRLSCAASGSISNGDYMGWYRQAPGKEREFVAGINTGSITYYADSVKGRFTISRDNAKNTAYLQMNSLKPEDTAVYYCAATFDAQFREPKGLYYWGQGTQVTVSS", "polyreactivity (PSR sort gate)": "low polyreactivity"}
{"sequence": "QVQLVESGGGLVQAGGSLRLSCAASGSIFGEYAMGWYRQAPGKERELVATISWSAGSTYYADSVKGRFTISRDYAKNTVYLQMNSLKPEDTAVYYCAAAYDGYYLSTFDSWGQGTQVTVSS", "polyreactivity (PSR sort gate)": "low polyreactivity"}
{"sequence": "QVQLVESGGGLVQAGGSLRLSCAASGRIFGLYAMGWYRQAPGKERELVAGITYSGGTTYYADSVKGRFTISRDNAKNTVYLQMNSLKPEDTAVYYCNKRWYYQYGKYGYWGQGTQVTVSS", "polyreactivity (PSR sort gate)": "high polyreactivity"}
{"sequence": "QVQLVESGGGLFQAGGSLRLSCAASGFIFAWYAMGWSRQAPGKERELVATISSSGARTYYADSVKGRFTISRDNAKNTVYLQLNRLKPEDTAVYYCASVYSTLGVGYYYWGQGTQVTVSS", "polyreactivity (PSR sort gate)": "high polyreactivity"}
{"sequence": "QVQLVESGGGLVQAGGSLRLSSPASGFTFLAYAMGWYRQAPGKERELVAAISASSGRTRYADSVKGRFTISRDNAKNTVYLQMISLKPEDTAVYYCAARYRGTYRRDYWGQGTQVTVSS", "polyreactivity (PSR sort gate)": "high polyreactivity"}
